Here are results for one molecule from US12491259B2, “Anti-variable MUC1* antibodies and uses thereof” (Minerva Biotechnologies Corporation, priority 2022, dated 2025).

In this experiment the test system is T47D-MUC1* breast cancer cells. Description: ADC cell killing, photographs and PrestoBlue live/dead cell assay. Type of experiment: cell-based, human. As to conditions: 500 nM and 6.2 nM, 120 hours. The method, then: T47D-MUC1* is a cell line in which T47D cells have been transduced to express even more MUC1*. MNC2-ADC was incubated with T47D-WT cells (FIG. 10A-10G) or T47D-MUC1* cells (FIG. 11A-11G). […] These experiments are shown as just one example. […] The toxin that is attached to the anti-MUC1* antibody may be one of several known to those skilled in the art. Similarly, MNC2 may be human or humanized.
In this next experiment, a valine-citrulline p-aminobenzylcarbamate (VC-PAB) linker was used to connect the deglycosylated antibody and the toxin. The linker is separately coupled to the MMAE at one end, then the other end is reacted with maleimide, then coupled to the antibody after reduction through alkylation. MMAE inhibits cell division by blocking the polymerization of tubulin. […] The viability of the 72 hour co-cultures was measured using a cell death indicator called PrestoBlue™ (Thermo Fisher Scientific, Waltham, MA) (FIG. 17). […]
As another example of how antibodies of the invention can be incorporated into ADCs, antibody drug conjugates, for the treatment of MUC1* positive cancers, a toxin was attached to another anti-MUC1* antibody, 20A10. […] The viability of the 72 hour co-cultures was measured using a cell death indicator called PrestoBlue™ (Thermo Fisher Scientific, Waltham, MA) (FIG. 19). […]

B1: MNC2-Deruxtecan (conjugate)
VH: EVQLVESGGGLVKPGGSLRLSCAASGFTFSGYAMSWVRQAPGKGLEWVSTISSGGTYIYYPDSVKGRFTISRDNAKNSLYLQMNSLRAEDTAVYYCARLGGDNYYEYFDVWGKGTTVTVSS
VL: DIVLTQSPASLAVSPGQRATITCRASKSVSTSGYSYMHWYQQKPGQPPKLLIYLASNLESGVPARFSGSGSGTDFTLTINPVEANDTANYYCQHSRELPFTFGGGTKVEIKRT
With B1, the “killing effect in photographs” value is “significant decrease in cell number”.
